This note sets out measurements from patent US20250074964A1 (Ambio, Inc., priority 2023, published 2025).

Starred links: 1 amine or outer side, 2 acyl side, 3 side chain; linkers in the order of their positions; H or OH if unused. Non-standard residues stand in square brackets, D forms with d. Residues, ends and D or L forms follow the SMILES beside them. Groups on a side chain read outwards from the residue. No end group written: not given here. *: point of attachment. (CH2)18‑OH = polymethylene chain of 18 CH2 units ending in OH (m = 18), OCCCCCCCCCCCCCCCCCC*; C18 diacid = O=C(O)CCCCCCCCCCCCCCCCC(=O)*; γGlu = O=C(O)[C@H](CCC(=O)[*:2])N[*:1]; Dap = NC[C@H](N)C(=O)O; AEEA = NCCOCCOCC(=O)O; Aib = CC(C)(N)C(=O)O

Assay [1] deals with human GLP-1R (constitutively expressed on recombinant HEK293 CRE-luciferase reporter cells) (human) (UniProt P43220). Briefly: cell-based or functional assay.
Chain of human GLP-1R (constitutively expressed on recombinant HEK293 CRE-luciferase reporter cells) (human) (P43220 24-463): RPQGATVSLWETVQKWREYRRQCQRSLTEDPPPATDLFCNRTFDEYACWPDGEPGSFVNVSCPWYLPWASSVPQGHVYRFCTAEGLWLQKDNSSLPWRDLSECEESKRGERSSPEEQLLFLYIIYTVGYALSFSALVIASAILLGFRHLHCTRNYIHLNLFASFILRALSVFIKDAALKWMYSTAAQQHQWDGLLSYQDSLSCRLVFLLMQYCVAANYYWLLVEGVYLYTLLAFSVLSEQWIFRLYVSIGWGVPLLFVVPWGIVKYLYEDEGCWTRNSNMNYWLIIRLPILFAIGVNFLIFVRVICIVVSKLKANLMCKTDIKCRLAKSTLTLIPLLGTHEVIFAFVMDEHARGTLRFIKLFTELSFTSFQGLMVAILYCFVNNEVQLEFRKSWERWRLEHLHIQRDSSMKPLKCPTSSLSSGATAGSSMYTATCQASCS
The next assay concerns the target T1, GLP-1R (Homo sapiens, UniProt P43220).
T1 construct: purchased
Description: Cell-Based Tag-Lite GLP-1R Receptor Binding FRET Assay.

Assay [2] concerns the target GLP-1R on Tag-Lite Glucagon GLP-1 labeled cells. Description: Tag-Lite GLP-1R binding FRET competition assay on cells, with 2% HSA; competitor: red agonist.
For assay [3] the target is unchanged. Description: Tag-Lite GLP-1R binding FRET competition assay on cells, absence of HSA; competitor: red agonist.
Assay [4] concerns the target human GLP-1R (constitutively expressed on recombinant HEK293 CRE-luciferase reporter cells) (human, UniProt P43220 24-463). Briefly: cell-based or functional assay.

Chain of GLP-1R on Tag-Lite Glucagon GLP-1 labeled cells (P43220 24-463): as above
T1 sequence (P43220 24-463): as above

Take liraglutide (peptide): the biological IC50, CRE-luciferase reporter assay in assay [1] is 30 pM.

Regarding `CC[C@H](C)[C@H](NC(=O)[C@H](Cc1ccccc1)NC(=O)[C@H](CCC(=O)O)NC(=O)[C@H](CCCCNC(=O)COCCOCCNC(=O)COCCOCCNC(=O)CC[C@H](NC(=O)CCCCCCCCCCCCCCCCC(=O)O)C(=O)O)NC(=O)[C@H](C)NC(=O)[C@H](C)NC(=O)[C@H](CCC(N)=O)NC(=O)CNC(=O)[C@H](CCC(=O)O)NC(=O)C(C)(C)NC(=O)[C@H](Cc1ccc(O)cc1)NC(=O)[C@H](CO)NC(=O)[C@H](CO)NC(=O)[C@@H](NC(=O)[C@H](CC(=O)O)NC(=O)[C@H](CO)NC(=O)[C@@H](NC(=O)[C@H](Cc1ccccc1)NC(=O)[C@@H](NC(=O)CNC(=O)[C@H](CCC(=O)O)NC(=O)C(C)(C)NC(=O)[C@@H](N)Cc1c[nH]cn1)[C@@H](C)O)[C@@H](C)O)C(C)C)C(=O)N[C@@H](C)C(=O)N[C@@H](Cc1c[nH]c2ccccc12)C(=O)N[C@@H](CC(C)C)C(=O)N[C@H](C(=O)NCC(=O)NCC(=O)N1CCC[C@H]1C(=O)N[C@@H](CO)C(=O)N[C@@H](CO)C(=O)NCC(=O)N[C@@H](C)C(=O)N1CCC[C@H]1C(=O)N1CCC[C@H]1C(=O)N1CCC[C@H]1C(=O)N[C@@H](CO)C(N)=O)C(C)C` [APi3713] (H-H[Aib]EGTFTSDVSSY[Aib]EGQAAK([AEEA-AEEA-γGlu-C18 diacid])EFIAWLVGGPSSGAPPPS-NH2; N-terminus assumed), the 50% inhibitory concentration (IC50) (usually the concentration at which inhibition is half-maximal) on GLP-1R (absence of HSA) was 1.59 µM; on GLP-1R (with 2% HSA) it was 95.9 µM.

For the molecule semaglutide (peptide), the biological IC50, CRE-luciferase reporter assay in assay [1] amounted to 0.4 nM.

For the molecule Y[Aib]EGTFTSDVSS[Aib]LEGQAAK([AEEA-AEEA-γGlu-(CH2)18‑OH])EFIAWLVRGRG [APi3709], the values for the concentration for half-maximal inhibition (IC50) in assay [2] and in assay [3] were 129 µM and 2.48 µM, respectively. Besides, the “biological IC50, CRE-luciferase reporter assay” value (shortened to “biological IC50”) in assay [4] is roughly 5.4 nM.

As to H[Aib]EGTFTSDVSSY[Aib]EGQAAK([AEEA-AEEA-γGlu-(CH2)18‑OH])EFIAWLVGGPSSGAPPPS-NH2 [APi3713], the IC50 in assay [2] was determined as 95.9 µM; in assay [3], 1.59 µM. Further, the “biological IC50” value in assay [4] is roughly 0.57 nM.

As for H[Aib]EGTFTSDVSS[Aib]LEGQAAK([AEEA-AEEA-γGlu-(CH2)18‑OH])EFIAWLVRG[Dap]G [APi3712], the IC50 turned out to be 179 µM in assay [2] and 1.7 µM in assay [3]. Besides, the “biological IC50” value in assay [4] is roughly 0.66 nM.

B1: APi3710 (peptide)
peptide: HXEGTFTSDVSSXLEGQAAKEFIAWLVRGRG
modifications: GLP-1 numbering (first residue is Xaa7): Aib-ψ[CH2NH] at Xaa8 (reduced peptide bond between Aib and the next residue); Aib at Xaa19; ε-amino group of Lys26 substituted with AEEA-AEEA-γ-Glu-(CH2)m-OH, m is 18
In the case of B1, the values for the half-inhibitory concentration (IC50) in assay [2] and in assay [3] were 809 µM and 4.08 µM, respectively.

B2: APi3711 (peptide)
peptide: HXEGTFTSDVSSXLEGQAAKEFIAWLVRGRG
modifications: GLP-1 numbering (first residue is Xaa7): Aib at Xaa8 and Xaa19; ε-amino group of Lys26 substituted with AEEA-AEEA-γ-Glu-(CH2)m-OH, m is 18
On to B2, for which the figures for the half-inhibitory concentration (IC50) in assay [2] and in assay [3] were 77.8 µM and 0.898 µM, respectively. Also, the “biological IC50” value in assay [4] was roughly 0.66 nM.
